The source of these data is patent US11419837B2, “Modified release orally administered amino acid formulations” (APR APPLIED PHARMA RESEARCH S.A., priority 2015, dated 2022).

Series [1] can be described thus: In vivo bioavailability in pig: large neutral amino acid (LNAA) plasma concentrations. The note with it: LNAA (RAW DATA), pigs, oral by gavage. Here is the method:
(§1) The following formulations were tested: • APR-04 (bkT037/72-4) • APR-07 (bkT037/73-7) • Free amino acid (bkT037/71) • Casein In Vivo Study Design: • Subjects: 8 pigs • Design: 4 formulations in crossover • Administration route and method: oral, by gavage. The product dose was administered to each animal mixed with a small amount of water (300 ml) in order to ensure fast (≤5 minutes) assumption. The total amount of the product was administered using syringes. The animals were fasted for 13.5±0.5 hours before the treatment and the access to water was suspended one hour before and one hour after the treatment. • Dose, frequency and duration of administration: The amount of product administered was based on body-weight and equaled 0.8 g of amino acid/kg body weight for each test product. The products were administered by a single administration in the morning of each day of treatment. • Wash out: 48-72 hours • Blood sampling: 0.75 h before Treatment (T), 0.5 h before T, 0.25 h before T, 0.25 h after T, 0.5 h after T, 0.75 h after T, 1 h after T, 1.25 h after T, 1.5 h after T, 2 h after T, 2.5 h after T, 3 h after T, 4 h after T, 5 h after T • Analysis: The plasma concentrations of 14 amino acids (Alanine, Arginine, Glutamine, Glycine, Histidine, Isoleucine, Leucine, Lysine, Proline, Serine, Threonine, Tryptophan, Tyrosine, Valine) were measured and analyzed. Methionine and Aspartic acid were excluded from the analysis due to stability issues. The following parameters were evaluated: Area Under the concentration/time Curve (AUC0-last), peak concentration (Cmax), time to peak concentration (Tmax) and Clast. The behavior of the two APR Formulations was compared to the formulation of Free Amino Acids and Casein. Results:
The amino acids aggregated together for analysis were tryptophan, threonine, valine, isoleucine, leucine, histidine. […] Phenylalanine was excluded from the analysis because it was not present in the formulations tested. This subgroup of essential amino acids was chosen for analysis because LNAA share with phenylalanine a common transport system in order to enter the brain. High plasma concentration of LNAAs may reduce the uptake into the brain(Van Spronsen et al). might thus bring clinical advantages. In particular, if the analysis on the subgroup show an increased Clast for the APR formulations versus the free amino acid formulations, it can be speculated that the patient may have a sort of “prolonged protection/tolerance” to phenylalanine.

Series [2] in a line: In vivo bioavailability in pig: mean aggregate plasma concentrations of 14 amino acids. Conditions: pigs, oral by gavage; for AUC 0-last / Cmax: 0.8 g of amino acid/kg body weight. As to the method:
as §1, with “Results: […]” for “Results:”

Series [3] can be described thus: In vivo bioavailability in pig: mean of analyzed essential amino acid plasma concentrations. The note with it: ESSENTIAL AA (RAW DATA), pigs, oral by gavage, 0.8 g of amino acid/kg body weight. As to the method:
as §1
The amino acids aggregated together for analysis were Arginine, Histidine, Isoleucine, Leucine, Threonine, Lysine, Tryptophan and Valine. This subgroup was chosen for analysis because these amino acids cannot be endogenously synthesized. As a result, their concentrations in plasma from sampling the jugular vein may be more representative of the intestinal adsorption of the tested formulations than the non-essential amino acids whose presence in blood could be independently generated by the organism.
The statistical analysis for the date reported in Table 14c (for AUC, Cmax, and Clast: one-way repeated measures ANOVA with post hoc analysis with Bonferroni adjustment; for Tmax: Friedman test followed by multiple sign test for pairwise comparison) is reported in Table 14d.

Series [4] can be described thus: In vivo bioavailability in pig: mean of branched chain amino acid (BCAA) plasma concentrations. The note with it: BCAA (RAW DATA), pigs, oral by gavage, 0.8 g of amino acid/kg body weight. Here is the method:
as §1
The amino acids aggregated together for analysis were valine, isoleucine and leucine. This subgroup of essential amino acids was chosen for analysis because these essential amino acids are unique among amino acids in that their first catabolic step cannot occur in the liver. As a consequence, they largely escape first-pass splanchnic metabolism (Brosnan et al).
The statistical analysis for the date reported in Table 14e (for AUC, Cmax, and Clast: one-way repeated measures ANOVA with post hoc analysis with Bonferroni adjustment; for Tmax: Friedman test followed by multiple sign test for pairwise comparison) is reported in Table 14f

Where [5] appears, read: tryptophan, threonine, valine, isoleucine, leucine, histidine, 0.8 g of amino acid/kg.
The mark [6] stands for this setting: 14 AA (BC DATA, basal values subtracted).
Where [7] appears, read: 14 AA (RAW DATA, basal values not subtracted).

For the substance Casein, the Clast in series [1] (last sampling (5h), 0.8 g of amino acid/kg body weight) was found to be 143.0; in series [2] (14 AA (RAW DATA), plasma concentration at the last sampling (5h), 0.8 g of amino acid/kg) it was 172.9; in series [3] (last sampling (5h)), 153.0; in series [4] (last sampling (5h)), 228.7. For the same substance, the “AUC 0-last” value in series [1] (setting [5]) came out at 868.9; in series [2] (setting [6]) it was 258.9; in series [2] (setting [7]), 1125.6; in series [3] it was 969.9; in series [4] (valine, isoleucine and leucine), 1365.3. For the same substance, the maximum concentration (Cmax) (commonly the peak of the concentration-time curve) was found to be 257 µM in series [1] (setting [5]); 147 µM in series [2] (setting [6]); 325 µM in series [2] (setting [7]); 299 µM in series [3]; 401 µM in series [4] (valine, isoleucine and leucine). Besides, the Tmax (as a rule, the time at which the peak concentration occurs) in series [1] (setting [5]) is 1.16 h; in series [3] it was 1.16 h; in series [4] (valine, isoleucine and leucine), 1.16 h.
